Target: hDOP–C352I Gαi2
Assay: radioligand binding

pKi: 9
Substance: DADLE (D-Ala^2, Leu^5-enkephalin) (peptide)

From publication PMC2474558
